This assay concerns the target T1, CCR6 receptor on human cancer cell lines (PC3, HL60, HT-29, NB4) (human) (UniProt P51684).
T1 sequence (looked up): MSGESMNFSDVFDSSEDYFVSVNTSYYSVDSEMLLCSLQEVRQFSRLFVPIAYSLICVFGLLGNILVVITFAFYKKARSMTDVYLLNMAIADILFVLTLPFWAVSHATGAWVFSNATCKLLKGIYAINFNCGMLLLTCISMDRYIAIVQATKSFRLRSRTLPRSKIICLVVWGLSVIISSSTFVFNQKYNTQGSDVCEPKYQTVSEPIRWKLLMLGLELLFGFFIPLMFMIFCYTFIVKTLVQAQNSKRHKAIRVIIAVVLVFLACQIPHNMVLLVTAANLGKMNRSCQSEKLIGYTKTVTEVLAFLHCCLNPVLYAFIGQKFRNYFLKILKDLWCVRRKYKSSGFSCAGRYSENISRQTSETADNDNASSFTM
The experiment in a line: cell-based or functional assay.

In the case of “CCL20 (PeproTech EC, London, UK) (from UniProt P78556 27-96) (ligand)”, the BrdU incorporation of PC3 cells, CCL20 5 and 50 ng/ml was found to be 1.76 fold; the adhesion of HL60 cells to collagen I, CCL20 250 ng/ml was determined as 1.6 fold; the adhesion of HL60 cells to fibronectin, CCL20 500 ng/ml is 2 fold; the adhesion of PC3 cells to collagen I, CCL20 50 ng/ml stood at 2.2 fold. The substance further gave an adhesion of PC3 cells to collagen I, CCL20 500 ng/ml of 2.09 fold and an adhesion of PC3 cells to fibronectin, CCL20 500 ng/ml of 1.45 fold.

(Values after patent US20110123542A1.)
